Among the data in publication PMC11322666 (2024) are ratio to parent values, retold here.

First the molecules themselves.
B1: UPF3B^WT, Flag tagged [human] / inositol-requiring enzyme-1α (IRE1α), endogenous [human (endogenous in HEK293T and U2OS)] (parent complex)
chain 1: MKEEKEHRPKEKRVTLLTPAGATGSGGGTSGDSSKGEDKQDRNKEKKEALSKVVIRRLPPTLTKEQLQEHLQPMPEHDYFEFFSNDTSLYPHMYARAYINFKNQEDIILFRDRFDGYVFLDNKGQEYPAIVEFAPFQKAAKKKTKKRDTKVGTIDDDPEYRKFLESYATDNEKMTSTPETLLEEIEAKNRELIAKKTTPLLSFLKNKQRMREEKREERRRREIERKRQREEERRKWKEEEKRKRKDIEKLKKIDRIPERDKLKDEPKIKVHRFLLQAVNQKNLLKKPEKGDEKELDKREKAKKLDKENLSDERASGQSCTLPKRSDSELKDEKPKRPEDESGRDYREREREYERDQERILRERERLKRQEEERRRQKERYEKEKTFKRKEEEMKKEKDTLRDKGKKAESTESIGSSEKTEKKEEVVKRDRIRNKDRPAMQLYQPGARSRNRLCPPDDSTKSGDSAAERKQESGISHRKEGGEE
chain 2: IFGSTSTVTLPETLLFVSTLDGSLHAVSKRTGSIKWTLKEDPVLQVPTHVEEPAFLPDPNDGSLYTLGSKNNEGLTKLPFTIPELVQASPCRSSDGILYMGKKQDIWYVIDLLTGEKQQTLSSAFADSLCPSTSLLYLGRTEYTITMYDTKTRELRWNATYFDYAASLPEDDVDYKMSHFVSNGDGLVVTVDSESGDVLWIQNYASPVVAFYVWQREGLRKVMHINVAVETLRYLTFMSGEVGRITKWKYPFPKETEAKSKLTPTLYVGKYSTSLYASPSMVHEGVAVVPRGSTLPLLEGPQTDGVTIGDKGECVITPSTDVKFDPGLKSKNKLNYLRNYWLLIGHHETPLSASTKMLERFPNNLPKHRENVIPADSEKKSFEEVINLVDQTSENAPTTVSRDVEEKPAHAPARPEAPVDSMLKDMATIILSTFLLIGWVAFIITYPLSMHQQQQLQHQQFQKELEKIQLLQQQQQQLPFHPPGDTAQDGELLDTSGPYSESSGTSSPSTSPRASNHSLCSGSSASKAGSSPSLEQDDGDEETSVVIVGKISFCPKDVLGHGAEGTIVYRGMFDNRDVAVKRILPECFSFADREVQLLRESDEHPNVIRYFCTEKDRQFQYIAIELCAATLQEYVEQKDFAHLGLEPITLLQQTTSGLAHLHSLNIVHRDLKPHNILISMPNAHGKIKAMISDFGLCKKLAVGRHSFSRRSGVPGTEGWIAPEMLSEDCKENPTYTVDIFSAGCVFYYVISEGSHPFGKSLQRQANILLGACSLDCLHPEKHEDVIARELIEKMIAMDPQKRPSAKHVLKHPFFWSLEKQLQFFQDVSDRIEKESLDGPIVKQLERGGRAVVKMDWRENITVPLQTDLRKFRTYKGGSVRDLLRAMRNKKHHYRELPAEVRETLGSLPDDFVCYFTSRFPHLLAHTYRAMELCSHERLFQPYYFHEPPEPQPPVTPDAL
B2: UPF3B^WT, Flag tagged [human] / UPF2, endogenous [human (endogenous in HEK293T)] (parent complex)
chain 1: B1 chain 1
chain 2: MPAERKKPASMEEKDSLPNNKEKDCSERRTVSSKERPKDDIKLTAKKEVSKAPEDKKKRLEDDKRKKEDKERKKKDEEKVKAEEESKKKEEEEKKKHQEEERKKQEEQAKRQQEEEAAAQMKEKEESIQLHQEAWERHHLRKELRSKNQNAPDSRPEENFFSRLDSSLKKNTAFVKKLKTITEQQRDSLSHDFNGLNLSKYIAEAVASIVEAKLKISDVNCAVHLCSLFHQRYADFAPSLLQVWKKHFEARKEEKTPNITKLRTDLRFIAELTIVGIFTDKEGLSLIYEQLKNIINADRESHTHVSVVISFCRHCGDDIAGLVPRKVKSAAEKFNLSFPPSEIISPEKQQPFQNLLKEYFTSLTKHLKRDHRELQNTERQNRRILHSKGELSEDRHKQYEEFAMSYQKLLANSQSLADLLDENMPDLPQDKPTPEEHGPGIDIFTPGKPGEYDLEGGIWEDEDARNFYENLIDLKAFVPAILFKDNEKSCQNKESNKDDTKEAKESKENKEVSSPDDLELELENLEINDDTLELEGGDEAEDLTKKLLDEQEQEDEEASTGSHLKLIVDAFLQQLPNCVNRDLIDKAAMDFCMNMNTKANRKKLVRALFIVPRQRLDLLPFYARLVATLHPCMSDVAEDLCSMLRGDFRFHVRKKDQINIETKNKTVRFIGELTKFKMFTKNDTLHCLKMLLSDFSHHHIEMACTLLETCGRFLFRSPESHLRTSVLLEQMMRKKQAMHLDARYVTMVENAYYYCNPPPAEKTVKKKRPPLQEYVRKLLYKDLSKVTTEKVLRQMRKLPWQDQEVKDYVICCMINIWNVKYNSIHCVANLLAGLVLYQEDVGIHVVDGVLEDIRLGMEVNQPKFNQRRISSAKFLGELYNYRMVESAVIFRTLYSFTSFGVNPDGSPSSLDPPEHLFRIRLVCTILDTCGQYFDRGSSKRKLDCFLVYFQRYVWWKKSLEVWTKDHPFPIDIDYMISDTLELLRPKIKLCNSLEESIRQVQDLEREFLIKLGLVNDKDSKDSMTEGENLEEDEEEEEGGAETEEQSGNESEVNEPEEEEGSDNDDDEGEEEEEENTDYLTDSNKENETDEENTEVMIKGGGLKHVPCVEDEDFIQALDKMMLENLQQRSGESVKVHQLDVAIPLHLKSQLRKGPPLGGGEGEAESADTMPFVMLTRKGNKQQFKILNVPMSSQLAANHWNQQQAEQEERMRMKKLTLDINERQEQEDYQEMLQSLAQRPAPANTNRERRPRYQHPKGAPNADLIFKTGGRRR

In the first assay the parent is B1. The assay is described as follows: co-immunoprecipitation (IP: Flag, blot IRE1α), western blot band quantification; HEK293T cells, transfected for 24 h. For orientation: A western blot detects proteins with antibodies after separation by electrophoresis.
Consider chain 1 T169A, for which the ratio to parent was found to be 1.15.

Take chain 1 T169D: the ratio to parent came out at 0.26.

Variants of B1 are the subject of another assay. As to the kind of experiment: co-immunoprecipitation (IP: Flag, blot IRE1α), western blot band quantification; U2OS cells, transfected for 24 h.
Turning to chain 1 Y160D, the ratio to parent turned out to be 0.17.

In the case of chain 1 Y160F, the ratio to parent was 1.29.

The variants in the next assay derive from B1. As to the kind of experiment: co-immunoprecipitation (IP: Flag, blot IRE1α), western blot band quantification; HEK293T cells, transfected for 24 h. This is another data set of the same source.
Take chain 1 Y160D: the ratio to parent was found to be 0.21.

Turning to chain 1 Y160F, the ratio to parent was 1.28.

The variants in another assay derive from B1. The assay is described as follows: co-immunoprecipitation (IP: Flag, blot IRE1α), western blot band quantification; transfected for 24 h.
As to chain 1 T198D, the ratio to parent was found to be 1.21.

On to chain 1 T198A, for which the ratio to parent came to 1.06.

The variants in the next assay derive from B1. The description is as above. This is another data set of the same source.
For the variant chain 1 T197D, the ratio to parent was 1.1.

In the case of chain 1 T197A, the ratio to parent amounted to 1.22.

Another assay covers variants of B2. As to the kind of experiment: co-immunoprecipitation (IP: Flag, blot UPF2), western blot band quantification; transfected for 24 h.
For the variant chain 1 T169D, the ratio to parent stood at 0.2.

With chain 1 T169A, the ratio to parent turned out to be 1.1.

In the next assay the parent is B2. Described as above. The source holds these as a separate data set.
With chain 1 Y160F, the ratio to parent was 1.08.

As for chain 1 Y160D, the ratio to parent amounted to 0.21.

In a further assay the parent is B2. The description is as above. This is another data set of the same source.
For the variant chain 1 T198D, the ratio to parent came out at 1.07.

Take chain 1 T197D: the ratio to parent was 1.11.
